# Data published in IntAct's records for PubMed 17170699.
# B1: Protein disulfide-isomerase A3 (Homo sapiens), P30101 (parent)
# chain: MRLRRLALFPGVALLLAAARLAAASDVLELTDDNFESRISDTGSAGLMLVEFFAPWCGHCKRLAPEYEAAATRLKGIVPLAKVDCTANTNTCNKYGVSGYPTLKIFRDGEEAGAYDGPRTADGIVSHLKKQAGPASVPLRTEEEFKKFISDKDASIVGFFDDSFSEAHSEFLKAASNLRDNYRFAHTNVESLVNEYDDNGEGIILFRPSHLTNKFEDKTVAYTEQKMTSGKIKKFIQENIFGICPHMTEDNKDLIQGKDLLIAYYDVDYEKNAKGSNYWRNRVMMVAKKFLDAGHKLNFAVASRKTFSHELSDFGLESTAGEIPVVAIRTAKGEKFVMQEEFSRDGKALERFLQDYFDGNLKRYLKSEPIPESNDGPVKVVVAENFDEIVNNENKDVLIEFYAPWCGHCKNLEPKYKELGEKLSKDPNIVIAKMDATANDVPSPYEVRGFPTIYFSPANKKLNPKKYEGGRELSDFISYLQREATNPPVIQEEKPKKKKKAQEDL
# partner: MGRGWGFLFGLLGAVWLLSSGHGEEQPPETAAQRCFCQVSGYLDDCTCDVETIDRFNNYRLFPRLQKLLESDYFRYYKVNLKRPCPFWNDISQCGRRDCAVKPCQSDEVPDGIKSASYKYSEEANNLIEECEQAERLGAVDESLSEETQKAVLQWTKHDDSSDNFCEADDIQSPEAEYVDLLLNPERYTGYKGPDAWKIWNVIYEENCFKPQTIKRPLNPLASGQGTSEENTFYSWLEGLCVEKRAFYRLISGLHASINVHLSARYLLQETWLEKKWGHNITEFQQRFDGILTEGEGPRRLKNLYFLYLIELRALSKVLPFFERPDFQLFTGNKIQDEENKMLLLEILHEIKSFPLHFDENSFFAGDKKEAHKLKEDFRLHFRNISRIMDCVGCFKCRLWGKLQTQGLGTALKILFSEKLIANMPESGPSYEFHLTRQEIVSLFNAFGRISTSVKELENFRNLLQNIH
# Variants of: B1
# Settings: with ero1a_human ERO1A
row,effect of a mutation on the interaction,Variant
1,decreasing interaction,C409A
